These results are taken from FireProtDB (doi:10.1016/0003-9861(92)90047-z).

To fix the notation:
B1: Tryptophan synthase alpha chain, P0A877 (parent)
chain: MERYESLFAQLKERKEGAFVPFVTLGDPGIEQSLKIIDTLIEAGADALELGIPFSDPLADGPTIQNATLRAFAAGVTPAQCFEMLALIRQKHPTIPIGLLMYANLVFNKGIDEFYAQCEKVGVDSVLVADVPVEESAPFRQAALRHNVAPIFICPPNADDDLLRQIASYGRGYTYLLSRAGVTGAENRAALPLNHLVAKLKEYNAAPPLQGFGISAPDQVKAAIDAGAAGAISGSAIVKIIEQHINEPEKMLAALKVFVQPMKAATRS

The variants in this data set derive from B1. As to conditions: Escherichia coli (strain K12); pH 7.2; Thermal; DSC; Sodium phosphate 1 mM; reversible: yes; structure 1WQ5; whole UniProt chain shown.

Take M101V: the Tm worked out at 67.1 °C and the “change of melting temperature, mutant - wild type (higher = more stable)” value (from here on “change of melting temperature, mutant”) was 7.6 °C.
Turning to M101T, the midpoint of thermal melting (Tm) came out at 67.1 °C and the “change of melting temperature, mutant” value came to 7.6 °C.
M101I: the melting temperature (Tm) was 63.2 °C and the “change of melting temperature, mutant” value was determined as 3.7 °C.
D112N: the midpoint of thermal melting (Tm) came out at 56.4 °C and the “change of melting temperature, mutant” value is -3.1 °C.
For the variant D112G, the Tm was found to be 54.4 °C and the “change of melting temperature, mutant” value was -5.1 °C.
Take A67V: the midpoint of thermal melting (Tm) was found to be 56.8 °C and the “change of melting temperature, mutant” value is -2.7 °C.
For the variant P62Q, the Tm was found to be 58.9 °C and the “change of melting temperature, mutant” value was -0.6 °C.
Regarding F114L, the midpoint of thermal melting (Tm) worked out at 56.2 °C and the “change of melting temperature, mutant” value is -3.3 °C.
For the variant Q65R, the Tm is 58.9 °C and the “change of melting temperature, mutant” value was -0.6 °C.
The corresponding values for T63K are 56.2 °C and -3.3 °C.
The corresponding values for D60G are 56.9 °C and -2.6 °C.
On the same counts, the results for P78S are 57.9 °C and -1.6 °C.
P78L: the Tm is 61.4 °C and the “change of melting temperature, mutant” value was 1.9 °C.
On the same counts, the results for Y115C are 57.2 °C and -2.3 °C.
Consider Y102C, for which the Tm stood at 60.9 °C and the “change of melting temperature, mutant” value was 1.4 °C.
In the case of Y102H, the Tm stood at 60.3 °C and the “change of melting temperature, mutant” value came out at 0.8 °C.

For orientation: Tm means the temperature at the midpoint of the melting transition.
